Test results: patent US20160305947A1 (Merck Sharp & Dohme, published 2016)

Target: T1, human PD-L1 (Programmed Cell Death 1 Ligand 1) (human, UniProt Q9NZQ7 19-290)
T1 construct: whole, on cells; The target is the endogenous protein in FFPE tumor tissue after antigen retrieval, not a recombinant construct; also called B7-H1; PDCD1L1
Test: IHC staining of FFPE human melanoma sections (chromogenic DAB and TSA fluorescence)
Description: After deparaffinization, antigens were retrieved by immersing the slides into Flex TRS (high pH) and allowing the temperature inside the PT Link to reach 97° C. for 20 minutes. Once this time elapsed, the chamber temperature was cooled to 75° C. Slides were removed from the PT Link and cooled to room temperature in Flex wash buffer.
Single parameter chromogenic immunohistochemical staining was performed using a mouse monoclonal anti-PD-L1 antibody (clone 22C3) and the brown DAB chromogen (FIG. 1, left column) Multiparametric fluorescence immunohistochemistry was performed using the protocol detailed in Example 1. In brief, formalin-fixed paraffin-embedded sections were stained using an anti-PD1 antibody (polyclonal goat anti-hPD-1, green) and an anti-PD-L1 antibody (clone 22C3, red). Representative patterns of PD-1 and PD-L1 are depicted in the images in the right-hand column. […] PD-L1 can be identified as being either (1) spatially apart from PD-1+ T cells (A, right); (2) associated with a minimal PD-1+ infiltrate (B, right); (3) expressed in the absence of concomitant PD-1+ T cells (C, right); or (4) strongly expressed in tight spatial proximity to PD-1+CD8 T cells (D, right).

T1 sequence (Q9NZQ7 19-290): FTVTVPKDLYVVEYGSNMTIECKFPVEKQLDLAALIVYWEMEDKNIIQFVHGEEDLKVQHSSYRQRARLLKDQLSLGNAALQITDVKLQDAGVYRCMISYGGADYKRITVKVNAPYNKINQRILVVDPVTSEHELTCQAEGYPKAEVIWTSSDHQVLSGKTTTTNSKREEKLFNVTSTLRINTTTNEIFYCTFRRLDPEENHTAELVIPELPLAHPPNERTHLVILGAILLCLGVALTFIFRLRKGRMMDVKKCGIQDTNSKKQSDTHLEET

B1: Mouse anti-human PD-L1 mAb (Clone 22C3) (antibody, mouse IgG1, kappa, V domains shown)
VH: QVHLQQSGAELAKPGASVKMSCKASGYTFTSYWIHWIKQRPGQGLEWIGYINPSSGYHEYNQKFIDKATLTADRSSSTAYMHLTSLTSEDSAVYYCARSGWLIHGDYYFDFWGQGTTLTVSS
VL: DIVMSQSPSSLAVSAGEKVTMTCKSSQSLLHTSTRKNYLAWYQQKPGQSPKLLIYWASTRESGVPDRFTGSGSGTDFTLTISSVQAEDLAVYYCKQSYDVVTFGAGTKLELKR
notes: Mouse IgG1, made in house, used at 2 ug/mL as the primary antibody in IHC; also called antibody 22C3; mouse monoclonal anti-PD-L1 antibody (clone 22C3)
B1: binds.
